From patent US20250000936A1, “TREATMENT OF GEOGRAPHIC ATROPHY” (Apellis Pharmaceuticals, Inc., priority 2021, published 2025)

Experiments:
[1] = test system: patients with geographic atrophy (GA) secondary to age-related macular degeneration (AMD); assay: OAKS Phase 3 study: GA lesion growth in study eye by fundus autofluorescence; assay type: in vivo, human
Excerpt: (§1) This Example describes 12-month results from two Phase 3 multi-center, randomized, double-masked, sham-controlled studies (“DERBY” and “OAKS”) to compare the efficacy and safety of intravitreal APL-2 (pegcetacoplan, also referred to as “Study Drug” in this Example) therapy with sham injections in patients with geographic atrophy (GA) secondary to age-related macular degeneration (AMD).
(§2) To participate in the studies, subjects must have been diagnosed with GA of the macula secondary to AMD in the study eye. At screening, male and female subjects were required to fulfill all of the following inclusion criteria to be eligible for participation in the study. If both eyes met the inclusion criteria, the eye with the worst normal luminance visual acuity at the screening visit was designated as the study eye. If both eyes had the same visual acuity, the right eye was selected as the study eye. Ocular-specific inclusion criteria applied to the study eye only, unless otherwise specified.
The design of the DERBY and OAKS studies are schematically depicted in FIG. 2. […] As part of the screening process, the reading center evaluated FAF, OCT, Digital Color Fundus Photograph (DCFP), Near Infrared Reflectance (NIR), and fluorescein angiography (FA) to provide an objective assessment of subject eligibility. […]
Subjects were analyzed in the treatment arm assigned at randomization. […]

[2] = test system: patients with geographic atrophy (GA) secondary to age-related macular degeneration (AMD); assay: DERBY and OAKS combined: GA lesion growth and visual function; assay type: in vivo, human; conditions: for reduction in GA lesion growth from baseline compared to sham: combined analysis (FIG. 30); for reduction in lesion growth, study eye vs untreated fellow eye: bilateral GA, 12 months (FIG. 7D); for reduction in foveal lesion growth vs pooled sham / reduction in extrafoveal GA lesion growth vs pooled sham: month 18; for reduction of GA lesion growth vs pooled sham: months 18-24
Excerpt: as §1, §2
The design of the DERBY and OAKS studies are schematically depicted in FIG. 2. Each subject was assigned a unique screening number after signing the informed consent. Subjects who completed the study screening assessments and met all the eligibility criteria entered the study and were randomized on Day 1. As part of the screening process, the reading center evaluated FAF, OCT, Digital Color Fundus Photograph (DCFP), Near Infrared Reflectance (NIR), and fluorescein angiography (FA) to provide an objective assessment of subject eligibility. Subjects were randomized 2:2:1:1 to receive treatment with Study Drug monthly (PM), Study Drug every other month (PEOM), sham injection monthly (SM) or sham injection every other month (SEOM), respectively.
The Study Drug was pegcetacoplan (also referred to as “APL-2”) (see FIG. 1), which was provided for intravitreal injection at 15 mg/0.1 mL (150 mg/mL) as a sterile, isotonic solution of pegcetacoplan in acetate-buffer, pH 5.0, containing trehalose, supplied in stoppered glass vials.
The primary endpoint in the studies was the change from baseline to Month 12 in total area of GA lesion(s) in the study eye (in mm^2) based on Fundus Autofluorescence (FAF). Key secondary endpoints included change from baseline in the mean threshold sensitivity of all points (study eye) assessed by mesopic microperimetry at Month 24; change from baseline in monocular maximum reading speed (study eye), at Month 24 as assessed by MNRead or Radner reading charts (in select sites); change from baseline in mean FRI Index score (subject-level assessment) at Month 24; and change from baseline in NL-BCVA score (study eye) at Month 24 as assessed by Early Treatment Diabetic Retinopathy Study (ETDRS) chart. Additional secondary endpoints included change from baseline in LL-BCVA score (study eye) over time as assessed by ETDRS chart; change from baseline in the total area of GA lesion(s) in the study eye (in mm^2) as assessed by FAF over time other than Month 12; change from baseline in monocular critical print size (study eye), as assessed by MNRead or Radner reading charts (in select sites) over time; change from baseline in the NEI VFQ-25 distance activity subscale score (in select sites) (subject level assessment) over time; change from baseline in the number of scotomatous points assessed by mesopic microperimetry over time; and change from baseline in the mean threshold sensitivity within 500 microns outside the GA lesion, (perilesional points) assessed by mesopic microperimetry over time.
Two sham treatment arms (SM and SEOM) were pooled into a single control (Sham) group for analyses.
Subjects were analyzed in the treatment arm assigned at randomization.
Unless otherwise noted, hypothesis testing and estimation of treatment effects will be performed with a mixed effect model for repeated measure (MMRM) that includes data from all three treatment arms (PM, PEOM, and Sham). […]

[3] = test system: patients with geographic atrophy (GA) secondary to age-related macular degeneration (AMD); assay: DERBY and OAKS combined: safety; conditions: for CNV type on FA at eAMD study visit: Active leakage with low likelihood of CNV / CNV type on FA at eAMD study visit: Classic / CNV type on FA at eAMD study visit: Classic + occult / CNV type on FA at eAMD study visit: Occult / investigator-reported events of eAMD, double-layer sign (DLS) present in the study eye / investigator-reported events of eAMD, CNV present in the fellow eye / investigator-reported events of eAMD, CNV absent in the fellow eye / investigator-reported events of eAMD, double-layer sign (DLS) absent in the study eye: through month 18; for Investigator-determined new-onset eAMD in fellow eyes: through 18 months; for combined rate of new-onset exudations: month 24
Description: All randomized subjects returned every month to the clinical site for assessments and additional pegcetacoplan or sham injections according to their randomization scheme until Month 12. From Month 12 onwards, subjects return to the clinical site based on their randomized treatment schedule (monthly or EOM) and follow the treatment regimen and assessments outlined in the Visit Schedule until Month 24. Safety was assessed throughout the study by a number of evaluations including: monitoring of AEs, preinjection and postinjection monitoring, blood and urine samples collected, physical examination, vital signs, and follow-up phone calls. Blood samples were also be collected for anti-therapeutic antibodies, genotyping, and clinical repository (if the subject consented to this portion).
The Safety set consisted of all subjects randomized who received at least one injection of pegcetacoplan or sham. Subjects were analyzed according to the actual treatment received. […] This population was used for all safety analyses.

[4] = combined, PEOM (every other month), N=21 events
[5] = combined, PM (monthly), N=26 events
[6] = combined, between months 18 and 24

With “Poly(oxy-1,2-ethanediyl), α-hydro-ω-hydroxy-, 15,15′-diester with N-acetyl-L-isoleucyl-L-cysteinyl-L-valyl-1-methyl-L-tryptophyl-L-glutaminyl-L-α-aspartyl-L-tryptophylglycyl-L-alanyl-L-histidyl-L-arginyl-L-cysteinyl-L-threonyl-2-[2-(2-aminoethoxy) ethoxy]acetyl-N^6-carboxy-L-lysinamide cyclic (2->12)-(disulfide) [pegcetacoplan]” the “reduction in GA lesion growth versus sham” value ([1]; distance ≤250 microns, every other month, p=0.0008) was 19%, the “reduction in GA lesion growth versus sham” value ([1]; lesion distance to foveal center point >250 microns, monthly, p=0.0012) was 30% and the “reduction in GA lesion growth from baseline compared to sham” value ([2]; EOM, p<0.0001) was 24%. For the same substance, the “reduction in GA lesion growth from baseline compared to sham” value ([2]; monthly, p<0.0001) was 30%, the “key secondary endpoints measuring visual function, pegcetacoplan vs sham” value ([2]; combined, 24 months (FIG. 31, NL-BCVA)) was “no clinically meaningful difference” and the “reduction in lesion growth, study eye vs untreated fellow eye” value ([2]; combined, every other month) was 11%. The “reduction in lesion growth, study eye vs untreated fellow eye” value ([2]; combined, monthly) was 16%, the “reduction in GA lesion growth vs pooled sham” value ([2]; combined, every other month, month 12, p<0.0012) was 14% and the “reduction in foveal lesion growth vs pooled sham” value ([2]; combined, every other month, p 0.0069) was 13%. The “reduction in extrafoveal GA lesion growth vs pooled sham” value ([2]; combined, every other month, p=0.0006) was 21%, the “reduction in GA lesion growth vs pooled sham” value ([2]; combined, every other month, months 0-6 segment) was 12% and the “reduction in GA lesion growth vs pooled sham” value ([2]; combined, every other month, months 12-18 segment) was 17%. The “reduction of GA lesion growth vs pooled sham” value (from here on “reduction of GA lesion growth”) ([2]; combined, extrafoveal lesions, EOM) was 28%, the “reduction in GA lesion growth vs pooled sham” value ([2]; combined, extrafoveal lesions, every other month, 12 months, p=0.0002) was 23% and the “reduction in GA lesion growth vs pooled sham” value ([2]; combined, extrafoveal lesions, monthly, 12 months, p<0.0001) was 26%. For the same substance, the “reduction of GA lesion growth” value ([2]; combined, extrafoveal lesions, monthly) was 28%, the “reduction of GA lesion growth” value ([2]; combined, foveal lesions, EOM) was 28% and the “reduction of GA lesion growth” value ([2]; combined, foveal lesions, monthly) was 34%. The “reduction in GA lesion growth vs pooled sham” value ([2]; combined, monthly, month 12, p<0.0001) was 17%, the “reduction in extrafoveal GA lesion growth vs pooled sham” value ([2]; combined, monthly, p<0.0001) was 26% and the “reduction in foveal lesion growth vs pooled sham” value ([2]; combined, monthly, p=0.0070) was 13%. The “reduction in GA lesion growth vs pooled sham” value ([2]; combined, monthly, months 0-6 segment (FIG. 12B)) was 13%, the “reduction in GA lesion growth vs pooled sham” value ([2]; combined, monthly, months 12-18 segment (FIG. 12B)) was 21% and the tolerability ([3]; both Phase 3 studies, 12 months) was “well tolerated”. The “events of retinal vasculitis or retinal vein occlusion” value ([3]; combined, 12 months) was “No events”, the intraocular inflammation events ([3]; combined, 12 months, thirteen events) was 0.21 % per injection and the “CNV type on FA at eAMD study visit: Active leakage with low likelihood of CNV” value [3, 4] was 0 n (%). For the same substance, the “CNV type on FA at eAMD study visit: Classic” value [3, 4] was 1 (4,8%) n (%), the “CNV type on FA at eAMD study visit: Classic + occult” value [3, 4] was 0 n (%) and the “CNV type on FA at eAMD study visit: Occult” value [3, 4] was 20 (95.2%) n (%). For the same substance, the “Investigator-determined new-onset eAMD in fellow eyes” value ([3]; combined, PEOM (every other month), 339 patients without baseline fellow eye CNV) was 13 (3.8%) n (%), the “CNV type on FA at eAMD study visit: Active leakage with low likelihood of CNV” value [3, 5] was 3 (11.5%) n (%) and the “CNV type on FA at eAMD study visit: Classic” value [3, 5] was 1 (3.8%) n (%). For the same substance, the “CNV type on FA at eAMD study visit: Classic + occult” value [3, 5] was 0 n (%), the “CNV type on FA at eAMD study visit: Occult” value [3, 5] was 22 (84.6%) n (%) and the “Investigator-determined new-onset eAMD in fellow eyes” value ([3]; combined, PM (monthly), 335 patients without baseline fellow eye CNV) was 12 (3.6%) n (%). The cases of endophthalmitis [3, 6] was “No cases”, the “serious adverse events of ischemic optic neuropathy” value [3, 6] was “no serious adverse events” and the “pooled rate of new-onset exudations (investigator-determined eAMD), patients” value ([3]; combined, every other month, 12 months) was 4.1%. The “rate of new-onset exudations” value ([3]; combined, every other month, month 18, 26/420 patients) was 6.2%, the “combined rate of new-onset exudations” value ([3]; combined, every other month) was 6.7% and the “investigator-reported events of eAMD, double-layer sign (DLS) present in the study eye” value ([3]; combined, every other month, 6/73 patients) was 8.2%. For the same substance, the “investigator-reported events of eAMD, CNV present in the fellow eye” value ([3]; combined, every other month, 8/81 patients) was 9.9%, the “investigator-reported events of eAMD, CNV absent in the fellow eye” value ([3]; combined, every other month, 18/338 patients) was 5.3% and the “investigator-reported events of eAMD, double-layer sign (DLS) absent in the study eye” value ([3]; combined, every other month, 20/345 patients) was 5.8%. The “events of retinal vasculitis or retinal vein occlusion” value ([3]; combined, month 18) was “No events”, the “rate of intraocular inflammation” value ([3]; combined, month 18) was 0.23 % per injection and the “pooled rate of new-onset exudations (investigator-determined eAMD), patients” value ([3]; combined, monthly, 12 months) was 6.0%. For the same substance, the “rate of new-onset exudations” value ([3]; combined, monthly, month 18, 40/419 patients) was 9.5%, the “combined rate of new-onset exudations” value ([3]; combined, monthly) was 11.9% and the “investigator-reported events of eAMD, double-layer sign (DLS) present in the study eye” value ([3]; combined, monthly, 8/79 patients) was 10.1%. For the same substance, the “investigator-reported events of eAMD, CNV present in the fellow eye” value ([3]; combined, monthly, 8/84 patients) was 9.5%, the “investigator-reported events of eAMD, CNV absent in the fellow eye” value ([3]; combined, monthly, 32/335 patients) was 9.6% and the “investigator-reported events of eAMD, double-layer sign (DLS) absent in the study eye” value ([3]; combined, monthly, 32/336 patients) was 9.5%. For the same substance, the “events of occlusive vasculitis or retinitis” value ([3]; combined, over 24 months) was “No events” and the “rate of intraocular inflammation” value ([3]; combined, over 24 months) was 0.24 % per injection.
